Measurements as given in patent publication US20130195908A1.

Experiments:
[1] = biological target: Lyb-2.1 antigen expressed at the surface of B lymphocytes (mouse) (UniProt P21855); test: cell-based or functional assay
[2] = biological target: MHC class II molecule I-E^d expressed at the surface of A20 cells and mouse splenocytes (mouse) (UniProt P01904); test: cell-based or functional assay
[3] = biological target: MHC class II molecule I-E^d expressed at the surface of A20 cells and mouse splenocytes (mouse) (UniProt P01904); test: flow cytometry on mouse splenocytes, 10 nM complex, B cells gated with anti-CD19-PE

UniProt P01904, sequence (P01904 26-255, chain 1 of 2): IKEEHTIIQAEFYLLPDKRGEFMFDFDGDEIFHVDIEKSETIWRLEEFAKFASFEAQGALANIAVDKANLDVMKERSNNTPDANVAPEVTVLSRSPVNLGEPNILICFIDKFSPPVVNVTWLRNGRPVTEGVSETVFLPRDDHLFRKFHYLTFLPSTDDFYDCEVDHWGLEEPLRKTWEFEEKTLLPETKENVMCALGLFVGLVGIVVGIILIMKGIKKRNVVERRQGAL
UniProt P01904, sequence (P01915 32-264, chain 2 of 2, further chain): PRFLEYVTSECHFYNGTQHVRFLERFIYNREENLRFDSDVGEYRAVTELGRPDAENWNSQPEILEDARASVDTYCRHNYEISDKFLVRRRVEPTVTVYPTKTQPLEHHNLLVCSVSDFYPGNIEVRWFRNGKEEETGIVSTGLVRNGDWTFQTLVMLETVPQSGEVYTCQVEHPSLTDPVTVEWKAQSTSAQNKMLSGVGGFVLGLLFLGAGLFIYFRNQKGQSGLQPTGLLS
UniProt P21855, sequence (P21855 whole entry): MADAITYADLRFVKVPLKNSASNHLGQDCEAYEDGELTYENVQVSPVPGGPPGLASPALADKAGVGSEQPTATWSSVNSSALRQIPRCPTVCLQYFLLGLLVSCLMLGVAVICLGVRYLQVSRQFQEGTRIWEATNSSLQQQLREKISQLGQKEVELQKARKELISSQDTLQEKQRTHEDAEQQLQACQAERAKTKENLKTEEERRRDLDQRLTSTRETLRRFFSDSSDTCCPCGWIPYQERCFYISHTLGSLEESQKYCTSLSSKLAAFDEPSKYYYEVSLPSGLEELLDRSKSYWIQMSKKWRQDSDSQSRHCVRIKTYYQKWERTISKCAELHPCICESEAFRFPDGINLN

Row | Substance | amount of ZZDTR-BD needed to reach the same level of T4B6 stimulation (IL-2 secretion), A20 cells as APCs, against free ZZDTR-BD [1] | amount of ZZDTR-BD needed to reach the same level of T4B6 stimulation (IL-2 secretion), A20 cells as APCs, against free ZZDTR-BD [2] | amount of ZZDTR-BD needed to reach the same level of T4B6 stimulation (IL-2 secretion), splenocytes as APCs, against free ZZDTR-BD [2] | percent of B lymphocytes labeled [3]
1 | 10-1.D.2/ZZDTR-BD complex (mouse monoclonal IgG2a 10-1.D.2, anti-Lyb-2.1, complexed with ZZDTR-BD) | 3.8 times lower |  |  | 
2 | 14-4-4S/ZZDTR-BD complex (mouse monoclonal IgG2a 14-4-4S, anti-MHC class II I-E^d, complexed with ZZDTR-BD) |  | 13.4 times lower | 5.2 times lower | 68.5%
